# Reference: the DeepSol protein solubility set
# Assay: soluble on expression in E. coli; label from the status in PepcDB or PDB records
row,Sequence,soluble on expression in E. coli
1,MSLTSLYTGTFVDTPTPAGLRVRRNHLLAVSAQGAIAHIAPVSDPASQALLASAPPPTALGRHSFFLPTYADLHLHAAQYLYAGTGLDLPLLEWLERYAYRAEERVDADEQLAERLYGRLVQRLRENGTGCVVFFGTIGVQANLILARKAQEAGIRAFIGKLSMDESPRPSYGEASPAASLSSLNSFLDSMESYLSQFPSHRRLVQPIITPRFVPVCSDELLQGLAKVAQDRNVRLQSHMCEGRDQIDMSLKTKGLDDEKVFDKFGLLGPQTLQAHVTYLDDKLIPLIKERGVTIAHCPLSNQYLSERQFPLREALDASLSLGLGTDIAGGYSPSIHTAMRQAVIISRMREGDRCESLGCSFGTVKKEEEGGGRNLRVDWKEAVWAATRGGKAGMGLGGALEVGMEFDVQLIELASEENPTGTGPLDLFDLADSQVDTDTDEWWFDALERWWSNGDERNRKGMWVQGAKIAEGHHHHHH,soluble
2,MGSDKIHHHHHHMLQTDNLIPDFINKQITQAVMSLRSGNVVAFPTETVYGLGADISQPQAIQKIFEIKGRPSSHPLIVHFANLSELEFWAENIPATAWILAQHFWPGPLTLILTKSNHIPLSVTGGQETVGLRIPRHPIALKLLEQLGSCKALAAPSANRFGFVSPTIADHVKNAFNDKIEVILDGGPCEVGLESTIVSCIDKDVTILRPGGISVLSIENLLQQKVSVKSQNKIRTPGSLSSHYATATPLEICQSSESLFSRSFDLLQQGIRTAVIIRSIHLIPMLNSDDKFHYILMPNDPVAFGKDLYATLRKLDDANFERILVEAPPDDLEWLAVADRLSRASYSFTSK,not soluble
3,MTTMNPFLVQSTLPYLAPHFDQIANHHYRPAFDEGMQQKRAEIAAIALNPQMPDFNNTILALEQSGELLTRVTSVFFAMTAAHTNDELQRLDEQFSAELAELANDIYLNGELFARVDAVWQRRESLGLDSESIRLVEVIHQRFVLAGAKLAQADKAKLKVLNTEAATLTSQFNQRLLAANKSGGLVVNDIAQLAGMSEQEIALAAEAAREKGLDNKWLIPLLNTTQQPALAEMRDRATREKLFIAGWTRAEKNDANDTRAIIQRLVEIRAQQATLLGFPHYAAWKIADQMAKTPEAALNFMREIVPAARQRASDELASIQAVIDKQQGGFSAQPWDWAFYAEQVRREKFDLDEAQLKPYFELNTVLNEGVFWTANQLFGIKFVERFDIPVYHPDVRVWEIFDHNGVGLALFYGDFFARDSKSGGAWMGNFVEQSTLNKTHPVIYNVCNYQKPAAGEPALLLWDDVITLFHEFGHTLHGLFARQRYATLSGTNTPRDFVEFPSQINEHWATHPQVFARYARHYQSGAAMPDELQQKMRNASLFNKGYEMSELLSAALLDMRWHCLEENEAMQDVDDFELRALVAENMDLPAIPPRYRSSYFAHIFGGGYAAGYYAYLWTQMLADDGYQWFVEQGGLTRENGLRFREAILSRGNSEDLERLYRQWRGKAPKIMPMLQHRGLNI,soluble
4,AMLPHGLIVSCQALPDEPLHSSFIMSKMALAAYEGGAVGIRANTKEDILAIKETVDLPVIGIVKRDYDHSDVFITATSKEVDELIESQCEVIALDATLQQRPKETLDELVSYIRTHAPNVEIMADIATVEEAKNAARLGFDYIGTTLHGYTSYTQGQLLYQNDFQFLKDVLQSVDAKVIAEGNVITPDMYKRVMDLGVHCSVVGGAITRPKEITKRFVQVMED,soluble
5,MTDMDPSNMTGGPMNGHSAEKSSEEKKSPRSSRGVGEDLKNAGKDAMNTMENAGKNAWDKAGELGKSGINTVQSAGSAVKNGAKDLAGKVDKAL,soluble
6,MAHHHHHHMRSISTGSGANLQKPSWIAQLCSDAQKSEKTISCDVKVYDELSWRRRRFSFDKELWDPARMSSIVRRRLCLGNEEAEYTVIGEAFAFADREDSPVVNEPQHSCKLLWDHNSSVEKLLIQISDHFPPLLWYAVKPTLESLKRIFSEFLDVDAEHMKKNLPYYESVQNAMETSTQERLGVTLSPTSVKDRFVADMRRRDPKDLELDYPCEYSVFLGTSPHFRLVEDRMMKSNPFVFGWPLLLSDGNEHLDGTPLRMAAFRTVYSKSLLMFHTRLDLQVDHRLASSEAGEETLLDVPIFCNINYPKNTRLCGGKPLVQRFNTVMGTTYPLDTPVDILAALAKEQCVKGPNELLEELRFLTAAAERAPDEERVFRISDDQLSANRIVGQLAYTIIYVALVNYDRFIKDVFDVYKTHRSDMVRVACARGASIVGRPDLIEQLISAEREGPCKNMLRGVVTTP,not soluble
7,MAKPILYSYWRSSCAWRVRIALALKNIDYEYRPIDLFSEESKNNAEFVKHNPAKKVPTLVINGLSLTESLAIIEYLDEAYPDPPFLPKELDKRSYSRAIALHIVASIQPLQAINIHKMLNEKEPGYGDFWCNHFVNKGFLALEELLKKHSGKYCVGDQLTIADINLPSIIYNAKIYKVDMSKYPTITRINEILAEDFRFKLAHPDNQPDAPNKN,not soluble
8,MKSITQLENKKVLVLGLAKSGEAAARLLAKLGAIVTVNDGKAFEENPSAQSLLEEGIKVVCGGHPLELLDENFELMVKNPGIRYDNPMVARALEKEIPVWTEVELAYLVSEAPIIGITGSNGKTTTTTMIADVLNHGGKSGVLSGNIGFPASEVAQSVTNQDTLVMELSSFQLMGIESFHPHIAVITNLMPTHIDYHGSFEEYVAAKWNIQNEMTSDDFIILNFNQDLAKELATQTNAQVVPFSTVEKVDGAYLENGGLYFKGELLMHADELGVPGSHNVENALATIAVAKLSGVSNQAIKETLSSFGGVKHRLQFVDTIDDVKFYNDSKSTNILATQKALSGFDNSKVILIAGGLDRGNEFDELIPDITGLKKMVILGESAPRVKRAADKAGVTYLDAKDVADATRIAFEQASAGDVVLLSPANASWDMYKNFEVRGDEFITTVERLKG,not soluble
9,MVRTYSPAFREAAVRMMISHREEYKCSRWAAAVAISEKIGASPNSIYAWFKKSTFETIESDDFDLAYYKERIERLESEIQRLQKTIKFLRTTIIILSNSLHFG,not soluble
10,MKNNQNSNIHLLRSAKHAEPVMLDIKQLVKTYDNGHQAVKGVDLSIHQGEFIVLVGPSGCGKSSILRSIAGLESITSGEIHLAGRRVDNEKPANRDIAMVFQNYALYPHMSVYDNLAYGLKNRGVDKQTIAAKIAKVAKTLKIEEYLDRKPAKLSGGQRQRVAMGRAIVRDPQLFLFDEPLSNLDAALRAHMRLEIKKLQRELGVTSVYVTHDQVEAMTLADRIVVVKQGEIEQVGTPAEVYHQPASTFVASFIGSPAMNFLPASIKQGQLHIAGKHCYLPQFDAMSSENITLGIRPEHASLHPLTNAIELKLDIQVVEPLGPNQLVHGKIIGLESEQDFIAVTAEIPLDVHQTLPIWVALEQLHLFDQQGKRFVQSHRSCTQSSKVASTRQQ,not soluble
11,MGSDKIHHHHHHMTTAADLSVFEQLDLPDTSLTRDTFAFAAQATPAFIHDHCVRSYVFARAHAQNQGLRAGTDYDDELLFVSCVLHDLGLSEEGSNGDQRFEVDGADIAAAFLRERGVEEERIAVAWDAIALHTSEGIASRKGTEVALAHLGIATDILGIQRESLPAGLADEVHALLPRQDLAHGFSDLIITQAVAKPHKASPTNFIGDLLRRHLPYGAYPNWYDLIDAAGWGDKPVGVTARRRAETPQQVGTLFMEYLEAGDVEGLVSLYEPNAHFVPTPGTHLVGTDAIREAMRQMVDSGARLKLEQREIRQVDDIALVSNNAILTGIGPEPVVSTTTEILRRQPDGGWVHAVDDPFFS,not soluble
12,MSRRSQWKQVANGMLGDVSKARSVEERENVPEKACGFCKNFSENAYASDGRGYCKKLKVGSDIKVNPPVYVMEGQASLTVLFNSDGAGCEYFNRQDLIDTDGNEVNDPSYRRVQRQMEKAIK,not soluble
13,MGSDKIHHHHHHMIDFLLLKSLHSLLGLTITVCDQNFSVIREYKSEKTISLFYNHYLILSNFSKTQHDFLFHYGSLGELFLVHHIQQYYIIIGPWRSNVIDPLLLKKKLTETQINASEQDYFIDRLSQLPFFSLSQIRELLIVTNYCLTGVVKDKLSEPLHYYTKGWSNSFDLDKIKQFSKQNMSSYKYQYHFENNILKAVKSGSEFLLKETVEQFSNSIVPIISGDELRSEKNYSIMIYDRLSQATIQAGLDIETAYRARDRFIKENESTISLNEVLKLRDTAILFYTQQVHSLKKHLETPHSQTIVAVIRYLENNLNRFIKTEEIAKECHMSESKLRKLFKQEKHITIQQYFLNLKIEAAKQLLDENKKVEEVSNLLGFSTSSNFSRTFKKIVGISPLEYKQKPKTI,not soluble
